Assay results as given in PMC3232247.

Molecular target: T1, RGSZ2 RH region (RGS box), recombinant, GST-free (murine)
T1 sequence (Q9QZB0 whole entry, looked up): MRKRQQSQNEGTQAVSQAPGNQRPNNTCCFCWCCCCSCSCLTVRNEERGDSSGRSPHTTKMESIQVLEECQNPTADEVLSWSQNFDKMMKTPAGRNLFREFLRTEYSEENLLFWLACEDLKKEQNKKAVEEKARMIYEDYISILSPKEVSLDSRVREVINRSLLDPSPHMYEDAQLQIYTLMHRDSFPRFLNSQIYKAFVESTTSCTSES

Substance “SUMO1 (Small Ubiquitin-like MOdifier 1) (from UniProt P63165 1-97) (natural protein)” has a k cat of GTP hydrolysis by Gαi, single turnover, with RGSZ2 RH and free SUMO1 (4.0 with RH without SUMO1; 2.2 for Gαi alone) of 0.0417 s⁻¹.
